From patent US20230174608A1 (published 2023)
*1 amine or outer side, *2 acyl side, *3 side chain or, on linkers, in order; H or OH if unused. Where no end group is shown, it is not given here. Side-chain parts run from the residue outwards. [ ]: non-standard residue; d: D form. The star is where a group is joined. C18 diacid = O=C(O)CCCCCCCCCCCCCCCCC(=O)*; γGlu = O=C(O)[C@H](CCC(=O)[*:2])N[*:1]; AEEA = NCCOCCOCC(=O)O; Aib = CC(C)(N)C(=O)O

Legend:
[1] = molecular target: GLP-1 receptor (GLP-1R), stably expressed on HEK293 cells; assay: cell-based or functional assay
[2] = molecular target: Glucagon receptor (GCGR), stably expressed on HEK293 cells; assay: cell-based or functional assay

Binder	GLP-1R (nM EC50), receptor-mediated cAMP production in HEK293 cells [1]	GCGR (nM EC50), receptor-mediated cAMP production in HEK293 cells [2]
HXQGTFTSDYSKYLEERAAKEFIAWLEAGG (HELM PEPTIDE1{H.[Aib].Q.G.T.F.T.S.D.Y.S.K.Y.L.E.E.R.A.A.K.E.F.I.A.W.L.E.A.G.G.[am]}|PEPTIDE2{[CCCCCCCCCCCCCCCC(=O)[*:2]].[gGlu].[gGlu]}$PEPTIDE1,PEPTIDE2,20:R3-3:R2$$$V2.0; N-terminus assumed; SMILES CCCCCCCCCCCCCCCC(=O)N[C@@H](CCC(=O)N[C@@H](CCC(=O)NCCCC[C@H](NC(=O)[C@H](C)NC(=O)[C@H](C)NC(=O)[C@H](CCCNC(=N)N)NC(=O)[C@H](CCC(=O)O)NC(=O)[C@H](CCC(=O)O)NC(=O)[C@H](CC(C)C)NC(=O)[C@H](Cc1ccc(O)cc1)NC(=O)[C@H](CCCCN)NC(=O)[C@H](CO)NC(=O)[C@H](Cc1ccc(O)cc1)NC(=O)[C@H](CC(=O)O)NC(=O)[C@H](CO)NC(=O)[C@@H](NC(=O)[C@H](Cc1ccccc1)NC(=O)[C@@H](NC(=O)CNC(=O)[C@H](CCC(N)=O)NC(=O)C(C)(C)NC(=O)[C@@H](N)Cc1c[nH]cn1)[C@@H](C)O)[C@@H](C)O)C(=O)N[C@@H](CCC(=O)O)C(=O)N[C@@H](Cc1ccccc1)C(=O)N[C@H](C(=O)N[C@@H](C)C(=O)N[C@@H](Cc1c[nH]c2ccccc12)C(=O)N[C@@H](CC(C)C)C(=O)N[C@@H](CCC(=O)O)C(=O)N[C@@H](C)C(=O)NCC(=O)NCC(N)=O)[C@@H](C)CC)C(=O)O)C(=O)O) [dgc005]	0.484 nM	1.16 nM
HXQGTFTSDYSKYLDERAAKEFIAWLESGG (HELM PEPTIDE1{H.[Aib].Q.G.T.F.T.S.D.Y.S.K.Y.L.D.E.R.A.A.K.E.F.I.A.W.L.E.S.G.G.[am]}|PEPTIDE2{[CCCCCCCCCCCCCCCC(=O)[*:2]].[gGlu]}$PEPTIDE1,PEPTIDE2,20:R3-2:R2$$$V2.0; N-terminus assumed; SMILES CCCCCCCCCCCCCCCC(=O)N[C@@H](CCC(=O)NCCCC[C@H](NC(=O)[C@H](C)NC(=O)[C@H](C)NC(=O)[C@H](CCCNC(=N)N)NC(=O)[C@H](CCC(=O)O)NC(=O)[C@H](CC(=O)O)NC(=O)[C@H](CC(C)C)NC(=O)[C@H](Cc1ccc(O)cc1)NC(=O)[C@H](CCCCN)NC(=O)[C@H](CO)NC(=O)[C@H](Cc1ccc(O)cc1)NC(=O)[C@H](CC(=O)O)NC(=O)[C@H](CO)NC(=O)[C@@H](NC(=O)[C@H](Cc1ccccc1)NC(=O)[C@@H](NC(=O)CNC(=O)[C@H](CCC(N)=O)NC(=O)C(C)(C)NC(=O)[C@@H](N)Cc1c[nH]cn1)[C@@H](C)O)[C@@H](C)O)C(=O)N[C@@H](CCC(=O)O)C(=O)N[C@@H](Cc1ccccc1)C(=O)N[C@H](C(=O)N[C@@H](C)C(=O)N[C@@H](Cc1c[nH]c2ccccc12)C(=O)N[C@@H](CC(C)C)C(=O)N[C@@H](CCC(=O)O)C(=O)N[C@@H](CO)C(=O)NCC(=O)NCC(N)=O)[C@@H](C)CC)C(=O)O) [dgc007]	0.28 nM	0.971 nM
H[Aib]QGTFTSDYSKYLEERAAKEFIAWLEAGG-NH2 (not fully specified (residue 20)) [dgc011]	0.955 nM	4.13 nM
H[Aib]QGTFTSDYSKYLEERAAKEFIAWLESGG-NH2 (not fully specified (residue 20); printed as HAibQGTFTSDYSKYLEERAAK*EFIAWLESGG) [dgc009]	0.092 nM	8.22 nM
H[Aib]QGTFTSDYSKYLEERAAKEFIAWLEAGG-NH2 (not fully specified (residue 20)) [dgc006]	0.472 nM	6.41 nM
H[dS]QGTFTSDYSKYLEERAAK([AEEA-AEEA-γGlu-C18 diacid])EFVAWLEGG-NH2 (N-terminus assumed; SMILES CC(C)C[C@H](NC(=O)[C@H](Cc1c[nH]c2ccccc12)NC(=O)[C@H](C)NC(=O)[C@@H](NC(=O)[C@H](Cc1ccccc1)NC(=O)[C@H](CCC(=O)O)NC(=O)[C@H](CCCCNC(=O)COCCOCCNC(=O)COCCOCCNC(=O)CC[C@H](NC(=O)CCCCCCCCCCCCCCCCC(=O)O)C(=O)O)NC(=O)[C@H](C)NC(=O)[C@H](C)NC(=O)[C@H](CCCNC(=N)N)NC(=O)[C@H](CCC(=O)O)NC(=O)[C@H](CCC(=O)O)NC(=O)[C@H](CC(C)C)NC(=O)[C@H](Cc1ccc(O)cc1)NC(=O)[C@H](CCCCN)NC(=O)[C@H](CO)NC(=O)[C@H](Cc1ccc(O)cc1)NC(=O)[C@H](CC(=O)O)NC(=O)[C@H](CO)NC(=O)[C@@H](NC(=O)[C@H](Cc1ccccc1)NC(=O)[C@@H](NC(=O)CNC(=O)[C@H](CCC(N)=O)NC(=O)[C@@H](CO)NC(=O)[C@@H](N)Cc1c[nH]cn1)[C@@H](C)O)[C@@H](C)O)C(C)C)C(=O)N[C@@H](CCC(=O)O)C(=O)NCC(=O)NCC(N)=O) [dgc012]	0.044 nM	2.17 nM
HXQGTFTSDYSKYLEERAAKEFIAWLESGG (HELM PEPTIDE1{H.[Aib].Q.G.T.F.T.S.D.Y.S.K.Y.L.E.E.R.A.A.K.E.F.I.A.W.L.E.S.G.G.[am]}|PEPTIDE2{[CCCCCCCCCCCCCCCC(=O)[*:2]].[gGlu].[gGlu]}$PEPTIDE1,PEPTIDE2,20:R3-3:R2$$$V2.0; N-terminus assumed; SMILES CCCCCCCCCCCCCCCC(=O)N[C@@H](CCC(=O)N[C@@H](CCC(=O)NCCCC[C@H](NC(=O)[C@H](C)NC(=O)[C@H](C)NC(=O)[C@H](CCCNC(=N)N)NC(=O)[C@H](CCC(=O)O)NC(=O)[C@H](CCC(=O)O)NC(=O)[C@H](CC(C)C)NC(=O)[C@H](Cc1ccc(O)cc1)NC(=O)[C@H](CCCCN)NC(=O)[C@H](CO)NC(=O)[C@H](Cc1ccc(O)cc1)NC(=O)[C@H](CC(=O)O)NC(=O)[C@H](CO)NC(=O)[C@@H](NC(=O)[C@H](Cc1ccccc1)NC(=O)[C@@H](NC(=O)CNC(=O)[C@H](CCC(N)=O)NC(=O)C(C)(C)NC(=O)[C@@H](N)Cc1c[nH]cn1)[C@@H](C)O)[C@@H](C)O)C(=O)N[C@@H](CCC(=O)O)C(=O)N[C@@H](Cc1ccccc1)C(=O)N[C@H](C(=O)N[C@@H](C)C(=O)N[C@@H](Cc1c[nH]c2ccccc12)C(=O)N[C@@H](CC(C)C)C(=O)N[C@@H](CCC(=O)O)C(=O)N[C@@H](CO)C(=O)NCC(=O)NCC(N)=O)[C@@H](C)CC)C(=O)O)C(=O)O) [dgc010]	0.537 nM	0.614 nM
HXQGTFTSDYSKYLEERAAKEFIAWLESGG (HELM PEPTIDE1{H.[Aib].Q.G.T.F.T.S.D.Y.S.K.Y.L.E.E.R.A.A.K.E.F.I.A.W.L.E.S.G.G.[am]}|PEPTIDE2{[CCCCCCCCCCCCCCCC(=O)[*:2]].[gGlu]}$PEPTIDE1,PEPTIDE2,20:R3-2:R2$$$V2.0; N-terminus assumed; SMILES CCCCCCCCCCCCCCCC(=O)N[C@@H](CCC(=O)NCCCC[C@H](NC(=O)[C@H](C)NC(=O)[C@H](C)NC(=O)[C@H](CCCNC(=N)N)NC(=O)[C@H](CCC(=O)O)NC(=O)[C@H](CCC(=O)O)NC(=O)[C@H](CC(C)C)NC(=O)[C@H](Cc1ccc(O)cc1)NC(=O)[C@H](CCCCN)NC(=O)[C@H](CO)NC(=O)[C@H](Cc1ccc(O)cc1)NC(=O)[C@H](CC(=O)O)NC(=O)[C@H](CO)NC(=O)[C@@H](NC(=O)[C@H](Cc1ccccc1)NC(=O)[C@@H](NC(=O)CNC(=O)[C@H](CCC(N)=O)NC(=O)C(C)(C)NC(=O)[C@@H](N)Cc1c[nH]cn1)[C@@H](C)O)[C@@H](C)O)C(=O)N[C@@H](CCC(=O)O)C(=O)N[C@@H](Cc1ccccc1)C(=O)N[C@H](C(=O)N[C@@H](C)C(=O)N[C@@H](Cc1c[nH]c2ccccc12)C(=O)N[C@@H](CC(C)C)C(=O)N[C@@H](CCC(=O)O)C(=O)N[C@@H](CO)C(=O)NCC(=O)NCC(N)=O)[C@@H](C)CC)C(=O)O) [dgc008]	0.742 nM	2.03 nM
HXQGTFTSDYSKYLEERAAKEFIAWLEAGG (HELM PEPTIDE1{H.[Aib].Q.G.T.F.T.S.D.Y.S.K.Y.L.E.E.R.A.A.K.E.F.I.A.W.L.E.A.G.G.[am]}|PEPTIDE2{[CCCCCCCCCCCCCCCC(=O)[*:2]].[gGlu]}$PEPTIDE1,PEPTIDE2,20:R3-2:R2$$$V2.0; N-terminus assumed; SMILES CCCCCCCCCCCCCCCC(=O)N[C@@H](CCC(=O)NCCCC[C@H](NC(=O)[C@H](C)NC(=O)[C@H](C)NC(=O)[C@H](CCCNC(=N)N)NC(=O)[C@H](CCC(=O)O)NC(=O)[C@H](CCC(=O)O)NC(=O)[C@H](CC(C)C)NC(=O)[C@H](Cc1ccc(O)cc1)NC(=O)[C@H](CCCCN)NC(=O)[C@H](CO)NC(=O)[C@H](Cc1ccc(O)cc1)NC(=O)[C@H](CC(=O)O)NC(=O)[C@H](CO)NC(=O)[C@@H](NC(=O)[C@H](Cc1ccccc1)NC(=O)[C@@H](NC(=O)CNC(=O)[C@H](CCC(N)=O)NC(=O)C(C)(C)NC(=O)[C@@H](N)Cc1c[nH]cn1)[C@@H](C)O)[C@@H](C)O)C(=O)N[C@@H](CCC(=O)O)C(=O)N[C@@H](Cc1ccccc1)C(=O)N[C@H](C(=O)N[C@@H](C)C(=O)N[C@@H](Cc1c[nH]c2ccccc12)C(=O)N[C@@H](CC(C)C)C(=O)N[C@@H](CCC(=O)O)C(=O)N[C@@H](C)C(=O)NCC(=O)NCC(N)=O)[C@@H](C)CC)C(=O)O) [dgc004]	0.113 nM	5.84 nM
